Results published in article PMC8599580, “Focused Proteomics Analysis of Habu Snake (Protobothrops flavoviridis) Venom Using Antivenom-Based Affinity Chromatography Reveals Novel Myonecrosis-Enhancing Activity of Thrombin-Like Serine Proteases” (Frontiers in Pharmacology, 2021).

B1: TLf2, thrombin-like serine protease TLSP2 (natural protein)
chain: IIGGDECNINEHRFLVALYTFRSRRLHCGGILINQEWVLSAARCNRKNIRIQLGMHSTNVINEDVQTRVPKEKFFCLSSKTHTRWNKDIMLIRLNSPVNNSTHIAPVSLPSNPPSLGSVCRVMGWGTISATKETHPDVPHCANINILDYSVCRAAYARLPATSRTLCAGILEGGKDSCKADSGGPLICNGEIQGIVSRGGHSCGQPRKPGLYTKVFDHLDWIKSIIAGNKDAICPP
notes: numbers count on: the mature protein; also called svSP02_TLf2; basic 30 kDa protein; source: purified from habu crude venom (CM-52 basic fraction #15, POROS HS column)
B2: TLf1 (flavoxobin) (enzyme, Protobothrops flavoviridis)
chain: VIGGDECNINEHPFLVALYDAWSGRFLCGGTLINPEWVLTAAHCDSKNFKMKLGAHSQKVLNEDEQIRNPKEKFICPNKKNTEVLDKDIMLIKLDSPVSYSEHIAPLSLPSSPPSVGSVCRIMGWGSITPVEETFPDVPHCANINLLDDVECKPGYPELLPEYRTLCAGVLQGGIDTCGFDSGTPLICNGQFQGIVYIGSHPCGQSRKPGIYTKVFDYNAWIQSIIAGNTAATCLP
notes: flavoxobin, thrombin-like serine protease of Protobothrops flavoviridis; also called svSP01_TLf1; flavoxovin; source: purified from habu crude venom (CM-52 flow-through, Hi-trap benzamidine column)

Tests used:
Details in all cases: both partners purified
TLf1 (flavoxobin) = biological target: B2; assay: SPR; BIAcore X; TLf1 or TLf2 immobilised on a CM5 chip by amine coupling; BPII or [Asp49] PLA2 injected as analytes (12.5-100 ug/ml) in HBS (10 mM HEPES pH 7.4, 0.15 M NaCl, 3 mM EDTA, 0.005% surfactant P-20) at 20 uL/min; nonlinear least-squares fitting with BIAevaluation
[1] = biological target: B1; assay: as above
[2] = biological target: T1, thrombin-like serine protease TLSP2 (TLf2) (Protobothrops flavoviridis, UniProt O13057 25-260); assay: SPR; BIAcore X; TLf2 or TLf1 amine-coupled on CM5 chip; BPII or [Asp49] PLA2 injected as analytes (12.5-100 ug/ml) in HBS (10 mM HEPES pH 7.4, 0.15 M NaCl, 3 mM EDTA, 0.005% P-20), 20 uL/min; unmodified CM5 as control; regeneration 10 mM HCl
T1 construct: also called svSP02_TLf2; basic 30 kDa protein; source: purified from habu (Protobothrops flavoviridis) crude venom (CM-52, POROS HS)

flavoxobin (TLf1) = biological target: T2, flavoxobin (TLf1) (Protobothrops flavoviridis, UniProt P05620 25-260); assay: as above
T2 construct: Flavoxobin (TLf1), thrombin-like serine protease of Protobothrops flavoviridis venom; also called flavoxovin; svSP01_TLf1

[Asp49] PLA2 = biological target: T3, [Asp49] PLA2 (Protobothrops flavoviridis, UniProt P06859 17-138); assay: SPR; BIAcore X; TLf1 or TLf2 immobilised on a CM5 chip by amine coupling; BPII or [Asp49] PLA2 injected as analytes (12.5-100 ug/ml) in HBS (10 mM HEPES pH 7.4, 0.15 M NaCl, 3 mM EDTA, 0.005% surfactant P-20) at 20 uL/min; nonlinear least-squares fitting with BIAevaluation
T3 construct: hemolytic [Asp49] phospholipase A2 of Protobothrops flavoviridis; source: prepared from habu (Protobothrops flavoviridis) crude venom
T3 sequence (looked up): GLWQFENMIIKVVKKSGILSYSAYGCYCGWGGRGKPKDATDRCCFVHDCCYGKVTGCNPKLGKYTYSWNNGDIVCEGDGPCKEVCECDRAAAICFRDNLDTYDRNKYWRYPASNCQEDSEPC

| Binder | Ka ([Asp49] PLA2) [M⁻¹] | Kd ([Asp49] PLA2) [nM] | koff ([Asp49] PLA2) [s⁻¹] | kon ([Asp49] PLA2) [M⁻¹ s⁻¹] | further results |
| --- | --- | --- | --- | --- | --- |
| [Lys49]PLA2 (BPII) (natural protein, [Lys49] phospholipase A2 BPII of Protobothrops flavoviridis; also called myonecrotic [Lys49]; PLA2; source: prepared from habu (Protobothrops flavoviridis) crude venom) SLVQLWKMIFQETGKEAAKNYGLYGCNCGVGRRGKPKDATDSCCYVHKCCYKKVTGCNPKMDSYSYSWKNKAIVCGEKNPPCLKQVCECDKAVAICLRENLGTYNKKYTIYPKPFCKKADTC | – | – | – | – | Ka (TLf1 (flavoxobin)): 6.56e+06 M⁻¹; koff (TLf1 (flavoxobin)): 0.00257 s⁻¹; kon (TLf1 (flavoxobin)): 16900 M⁻¹ s⁻¹; Ka [1]: 1.02e+07 M⁻¹; koff [1]: 0.00122 s⁻¹; kon [1]: 12500 M⁻¹ s⁻¹ |
| [Lys49] PLA2 (BPII) (natural protein, Basic protein II (BPII), [Lys49] phospholipase A2 myotoxin of Protobothrops flavoviridis venom; also called [Lys49]PLA2 myotoxin; myonecrotic [Lys49]; PLA2) SLVQLWKMIFQETGKEAAKNYGLYGCNCGVGRRGKPKDATDSCCYVHKCCYKKVTGCNPKMDSYSYSWKNKAIVCGEKNPPCLKQVCECDKAVAICLRENLGTYNKKYTIYPKPFCKKADTC | – | – | – | – | Kd [2]: 97.9 nM; Kd (flavoxobin (TLf1)): 152 nM |
| B1 | 7.9e+06 | 127 | 0.000791 | 6250 | – |
| B2 | 371000 | 2690 | 0.0125 | 4660 | – |
